In patent US20130280279A1 (Hoffmann-La Roche, published 2013):

T1: digoxigenated protein Dig-BP4
T1 chain: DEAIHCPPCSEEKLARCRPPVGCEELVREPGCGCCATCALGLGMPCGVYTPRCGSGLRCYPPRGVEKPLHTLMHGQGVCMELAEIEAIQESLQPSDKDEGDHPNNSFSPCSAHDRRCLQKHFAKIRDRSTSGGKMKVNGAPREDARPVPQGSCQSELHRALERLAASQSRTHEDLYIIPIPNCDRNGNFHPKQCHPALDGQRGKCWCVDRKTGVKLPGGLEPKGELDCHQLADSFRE

B1: murine <Dig> IgG1 kappa from mouse hybridoma clone 19-11 (antibody, V domains shown)
VH: EVQLVESGGGLVKPGGSLKLSCAVSGFTFSDYAMSWIRQTPENRLEWVASINIGATYAYYPDSVKGRFTISRDNAKNTLFLQMSSLGSEDTAMYYCARPGSPYEYDKAYYSMAYWGPGTSVTVSS
VL: DVQMTQSTSSLSASLGDRVTISCRASQDIKNYLNWYQQKPGGTVKLLIYYSSTLLSGVPSRFSGRGSGTDFSLTITNLEREDIATYFCQQSITLPPTFGGGTKLEIK
notes: also called murine DIG-IgG 19-11; mu<Dig> 19-11
B2: humanized <Dig> IgG (antibody, V domains shown)
VH: QVQLVESGGGLVKPGGSLRLSCAASGFTFSDYAMSWIRQAPGKGLEWVSSINIGATYIYYADSVKGRFTISRDNAKNSLYLQMNSLRAEDTAVYYCARPGSPYEYDKAYYSMAYWGQGTTVTVSS
VL: DIQMTQSPSSLSASVGDRVTITCRASQDIKNYLNWYQQKPGKAPKLLIYYSSTLLSGVPSRFSGSGSGTDFTLTISSLQPEDFATYYCQQSITLPPTFGGGTKVEIKR
notes: also called hu<Dig> IgG; DIGHu2

Legend:
[1] = target: T1, digoxigenated protein Dig-BP4; test: SPR (Biacore), antibody captured by anti-mouse IgG, DIG-BP4 injected
Method: (§1) Surfaces were blocked with an injection of 1 M ethanolamine/HCl pH 8.5. […] To evaluate the functionality of the recombinant <Dig> derivatives, binding of the recombinant hu<Dig> modules, incl.
(§2) Anti-mouse IgG antibody was immobilized on the surface of a CM5 biosensor chip in the same fashion as described above. […] The samples to be analyzed were diluted in HBS-P (10 mM HEPES, pH 7.4, 150 mM NaCl, 0.005% Surfactant P20) and injected at a flow rate of 5 μl/min. The contact time (association phase) was 3 min for the antibodies at a concentration between 1 and 5 nM. […] The contact time (association phase) was 3 min, the dissociation time (washing with running buffer) 5 min for each molecule at a flow rate of 30 μl/min. All interactions were performed at 25° C. (standard temperature). […] Signals were detected at a rate of one signal per second.

[2] = target: T1, digoxigenated protein Dig-BP4; test: SPR (Biacore), antibody captured by anti-human IgG, DIG-BP4 injected
Method: as §1, §2

Binder	Kd [1]	Kd [2]
B1	0.033 nM	–
B2	–	< 0.076 nM
